The target in assay [1] is human c-Met on cells (BaF3-hMet transfected with full-length human c-Met cDNA; A549 and H358 cells) (human, UniProt P08581 25-1390). The assay can be described thus: cell-based or functional assay.
Assay [2] concerns the target murine (mouse) HGF receptor (murine (mouse), UniProt P16056 25-931, limits assumed). As to the kind of experiment: cross-species binding test, method not described (data not shown).
For assay [3], the target named is canine HGF receptor (canine, UniProt Q75ZY9 25-935, limits assumed). The assay is described as above.
Assay [4] has as its target T1, cMet-Ig protein (biotinylated) (UniProt P08581 25-929, biotinylated with NHS-X-biotin).
T1 construct: Purified cMet-Ig produced at Genentech; also called cMet-Ig-biotin; not shown: Ig part not described
As to the kind of experiment: electrochemiluminescent competition assay in solution: inhibition of 2.5 nM HGF-Tag (ruthenium-labelled HGF) binding to 5 nM cMet-biotin; antibody titrated. As for the experimental part:
(§1) Purified cMet-Ig protein produced at Genentech (South San Francisco, Calif.) was biotinylated by incubating with 20-fold molar excess NHS-X-Biotin in 0.1 M NaHCO3, pH 8.5 using biotin-X-NHS (Research Organics, Cleveland, Ohio). Purified human 2-chain HGF produced at Genentech was labeled with BV-TAG (cat #110034) via NHS-ester chemistry according to manufacturer's directions (BioVeris International, Gaithersburg, Md.). cMet-Ig-biotin (500 ng/mL), HGF-Ruthenium Tag (250 ng/mL), and titrations of OA5D5 antibody ranging from 3333-0.21 nM of antibody were incubated together in a volume of 100 ul of assay diluent: PBS ±0.5% BSA/0.5% Tween 20/0.033% Proclin (Supelco Inc. Bellefonte Pa.). The mixtures were incubated in sealed polypropylene round bottom 96 well plates (Corning) for 2-4 hours at room temperature with shaking Streptavidin magnetic beads (Dynabeads, BioVeris) were added. Following a final 45 min incubation with vigorous shaking, the plates were read using a BioVeris M-Series instrument (BioVeris International, Gaithersburg, Md.).

In assay [5] the target is T1, cMet-Ig protein (biotinylated). The assay can be described thus: electrochemiluminescent competition assay: antibody (3333-0.21 nM) against HGF-Ruthenium Tag binding to cMet-Ig-biotin. As for the experimental part: as §1
Assay [6] has as its target T2, human HGF receptor Fc fusion (HGFR-Fc) (human, UniProt P08581 25-929, limits assumed).
T2 construct: Generated and used as an Fc fusion; also called HFGR-Fc; b-HGFR-Fc (biotinylated)
As to the kind of experiment: SPR (BIAcore-2000), HGFR-Fc immobilised on a CM5 chip, 1:1 Langmuir fit. As for the experimental part:
(§2) Affinity determinations were performed by surface plasmon resonance using a BIAcore™-2000. HGFR-Fc was immobilized (˜1000 response units (RU)) on a CM5 chip and varied concentrations of Fab (4 to 500 nM) in PBST were injected. After each injection the chip was regenerated using 100 mM HCl. Binding response was corrected by subtracting the RU from a blank flow cell. A 1:1 Languir model of simultaneous fitting of kₒₙ and koff was used for kinetics analysis.

For assay [7], the target named is T2, human HGF receptor Fc fusion (HGFR-Fc). The assay can be described thus: SPR (Biacore), monovalent affinity, HGFR-Fc; murine 5D5, monovalent affinity. (SPR reads the build-up and loss of mass on a sensor chip optically.)
For assay [8] the target is unchanged. The assay can be described thus: SPR (BIAcore-2000), Fab injected over immobilized HGFR-Fc; humanized clone (5D5 graft plus R94S) as Fab. As for the experimental part: as §2
A library was generated in which each of the HVR regions of the 5D5 graft was soft randomized. This library was panned against immobilized HGFR-Fc for 4 rounds of selection. […] Analysis of this clone by phage ELISA indicated it had similar affinity to that of the monovalent affinity of murine 5D5. […] Thus this unexpected substitution restores full binding affinity to the 5D5 graft, and the 5D5 graft plus R94S (hu5D5.v1) represents a fully humanized antibody. […] MacCallum et al. (MacCallum et al. J. Mol. Biol. 262: 732-745 (1996)) have analyzed antibody and antigen complex crystal structures and found positions 93 and 94 of the heavy chain are part of the contact region thus it seems reasonable to include these positions in the definition of hypervariable region of H3 (HVR-H3) when humanizing antibodies.

For assay [9] the target is unchanged. As to the kind of experiment: SPR (BIAcore-2000), HGFR-Fc immobilised on a CM5 chip, Fab injected at 4 to 500 nM, 1:1 Langmuir fit. As for the experimental part: as §2
Assay [10] has the same target. As to the kind of experiment: SPR (Biacore), Fab over immobilized HGFR-Fc; reference hu5D5.v1. How it is done:
as §2
Affinity maturation of hu5D5.v1 —To improve the affinity of hu5D5.v1, six phage display libraries were generated in the background of hu5D5.v1, each targeting a single HVR for soft randomization. To avoid re-selecting hu5D5.v1 from a potential high background of wild-type template, stop codons were introduced into the HVR to be mutated prior to generating each library. A solution sorting method was used to enhance the efficiency of the affinity-based phage selection process. By manipulating the biotinylated target concentration, reducing the phage capture time to lower backgrounds and the addition of unbiotinylated target to eliminate clones with faster off rates, high affinity clones can be proficiently selected. Lee et al., supra. […] After 4 rounds of selection, clones from each of the […] library pools were analyzed. […] Selected clones were screened by phage ELISA and then expressed as Fab protein and their affinity determined using Biacore. […]

For assay [11] the target is unchanged. The assay can be described thus: SPR (BIAcore-2000), HGFR-Fc immobilised on a CM5 chip.

Usually IC50 stands for the concentration needed to halve the response being measured. High values mean a need for much substance, low ones inhibition by little substance. What is called koff is the rate constant with which the complex falls apart. Broadly, the kon is the rate constant with which the complex forms. A lower kon goes with slow association. As a reminder, the Kd is the constant that tells how readily two partners part at equilibrium.

B1: OA-5D5.v2 one-armed anti-Met antibody (antibody)
light: DIQMTQSPSSLSASVGDRVTITCKSSQSLLYTSSQKNYLAWYQQKPGKAPKLLIYWASTRESGVPSRFSGSGSGTDFTLTISSLQPEDFATYYCQQYYAYPWTFGQGTKVEIKRTVAAPSVFIFPPSDEQLKSGTASVVCLLNNFYPREAKVQWKVDNALQSGNSQESVTEQDSKDSTYSLSSTLTLSKADYEKHKVYACEVTHQGLSSPVTKSFNRGEC
heavy: not shown
chain: not shown
notes: also called rhuOA5D5v2; one-armed 5D5.v2
In the case of B1, in assay [1], the “inhibition of HGF receptor activation (KIRA, HGF-dependent Met phosphorylation in A549 cells); IC50 relative to comparator antibodies” value is < 0.5 fold of the comparator's IC50 and the “inhibition of cell proliferation in the presence of HGF (BaF3-hMet cells); IC50 relative to comparator antibodies” value was < 0.5 fold of the comparator's IC50. Moreover, the binding result in assay [2] was “no binding”. Also, the binding result in assay [3] was “no binding”. This molecule came in with a concentration for half-maximal inhibition (IC50) in [4] of 1 nM. In assay [5], the “IC50 relative to comparator antibody (chimeric one-armed antibody, OA-5D5.v1)” value was < 0.5 fold of the comparator's IC50.

B2: murine 5D5 anti-c-met antibody, monovalent form (Fab, V domains shown)
VH: QVQLQQSGPELVRPGASVKMSCRASGYTFTSYWLHWVKQRPGQGLEWIGMIDPSNSDTRFNPNFKDKATLNVDRSSNTAYMLLSSLTSADSAVYYCATYGSYVSPLDYWGQGTSVTVSS
VL: DIMMSQSPSSLTVSVGEKVTVSCKSSQSLLYTSSQKNYLAWYQQKPGQSPKLLIYWASTRESGVPDRFTGSGSGTDFTLTITSVKADDLAVYYCQQYYAYPWTFGGGTKLEIKR
notes: also called mu5D5; hybridoma 5D5.11.6 (ATCC HB-11895)
Consider B2, for which, in assay [6], the off-rate (koff) was determined as 0.000743 s⁻¹ and the kon turned out to be 89800 M⁻¹ s⁻¹. The dissociation constant Kd in assay [7] is 8.3 nM.

B3: chimeric one-armed 5D5 antibody (Fab arm from the murine parent 5D5 antibody fused to a human Fc region) (antibody, V domains shown)
VH: QVQLQQSGPELVRPGASVKMSCRASGYTFTSYWLHWVKQRPGQGLEWIGMIDPSNSDTRFNPNFKDKATLNVDRSSNTAYMLLSSLTSADSAVYYCATYGSYVSPLDYWGQGTSVTVSS
VL: DIMMSQSPSSLTVSVGEKVTVSCKSSQSLLYTSSQKNYLAWYQQKPGQSPKLLIYWASTRESGVPDRFTGSGSGTDFTLTITSVKADDLAVYYCQQYYAYPWTFGGGTKLEIKR
notes: also called rchOA5D5; chimeric one-armed antibody
B3: the IC50 in [4] was found to be 2.6 nM.

B4: hu5D5.v1 (5D5 graft plus R94S), expressed as Fab (Fab, V domains shown)
VH: EVQLVESGGGLVQPGGSLRLSCAASGYTFTSYWLHWVRQAPGKGLEWVGMIDPSNSDTRFNPNFKDRFTISADTSKNTAYLQMNSLRAEDTAVYYCASYGSYVSPLDYWGQGTLVTVSS
VL: DIQMTQSPSSLSASVGDRVTITCKSSQSLLYTSSQKNYLAWYQQKPGKAPKLLIYWASTRESGVPSRFSGSGSGTDFTLTISSLQPEDFATYYCQQYYAYPWTFGQGTKVEIK
notes: Fab made in E. coli from the phage display vector (human CL and CH1); also called this clone
Consider B4, for which the dissociation constant (Kd) in [8] stood at 9.8 nM. Besides, in assay [9], the off-rate constant (koff) is 0.000507 s⁻¹ and the kon came to 51600 M⁻¹ s⁻¹.

B5: OA-5D5.v1 one-armed anti-Met antibody (antibody, V domains shown)
VH: EVQLVESGGGLVQPGGSLRLSCAASGYTFTSYWLHWVRQAPGKGLEWVGMIDPSNSDTRFNPNFKDRFTISADTSKNTAYLQMNSLRAEDTAVYYCASYGSYVSPLDYWGQGTLVTVSS
VL: DIQMTQSPSSLSASVGDRVTITCKSSQSLLYTSSQKNYLAWYQQKPGKAPKLLIYWASTRESGVPSRFSGSGSGTDFTLTISSLQPEDFATYYCQQYYAYPWTFGQGTKVEIK
notes: One-armed antibody named only as another antibody of the invention (OA-5D5.v1); Its constant domains and Fc polypeptides are not described; also called rhuOA5D5v1
B5 had an IC50 in [4] of 5.4 nM.

B6: hu5D5.v2 (clone 78), expressed as Fab (Fab, V domains shown)
VH: EVQLVESGGGLVQPGGSLRLSCAASGYTFTSYWLHWVRQAPGKGLEWVGMIDPSNSDTRFNPNFKDRFTISADTSKNTAYLQMNSLRAEDTAVYYCATYRSYVTPLDYWGQGTLVTVSS
VL: DIQMTQSPSSLSASVGDRVTITCKSSQSLLYTSSQKNYLAWYQQKPGKAPKLLIYWASTRESGVPSRFSGSGSGTDFTLTISSLQPEDFATYYCQQYYAYPWTFGQGTKVEIKR
notes: Differs from hu5D5.v1 by 94T, 96R and 100T (Kabat, VH); Fab made in E. coli from the phage display vector (human CL and CH1)
Consider B6, for which, in assay [10], the “fold affinity improvement (against hu5D5.v1)” value came out at 13 fold. In assay [9], this molecule gave a Kd of 0.625 nM, a koff of 0.000147 s⁻¹ and an association rate constant (kon) of 236000 M⁻¹ s⁻¹.

B7: 5D5 graft (direct HVR-graft of murine 5D5 into the human acceptor framework), displayed as an Fab on phage (Fab, V domains shown)
VH: EVQLVESGGGLVQPGGSLRLSCAASGYTFTSYWLHWVRQAPGKGLEWVGMIDPSNSDTRFNPNFKDRFTISADTSKNTAYLQMNSLRAEDTAVYYCARYGSYVSPLDYWGQGTLVTVSS
VL: DIQMTQSPSSLSASVGDRVTITCKSSQSLLYTSSQKNYLAWYQQKPGKAPKLLIYWASTRESGVPSRFSGSGSGTDFTLTISSLQPEDFATYYCQQYYAYPWTFGQGTKVEIK
notes: subgroup III VH with R71A, N73T, L78A; grafted L1 24-34, L2 50-56, L3 89-97, H1 26-35, H2 49-65, H3 95-102; R at 94); In the assay it was a monovalent Fab-g3 fusion on phage with human CL and CH1 of the vector; also called direct HVR-graft of 5D5
Turning to B7, the binding result in assay [11] is given as “no binding (tested: 500 nM)”.

Source of the values: US20120082663A1 (Genentech, published 2012).
